The record followed here is patent US20020001840A1.

This assay has as its target purified αvβ3 integrin (UniProt P06756). Description: cell-based or functional assay.

Chain of purified αvβ3 integrin (P06756 31-1048, form in doubt, chain 1 of 2): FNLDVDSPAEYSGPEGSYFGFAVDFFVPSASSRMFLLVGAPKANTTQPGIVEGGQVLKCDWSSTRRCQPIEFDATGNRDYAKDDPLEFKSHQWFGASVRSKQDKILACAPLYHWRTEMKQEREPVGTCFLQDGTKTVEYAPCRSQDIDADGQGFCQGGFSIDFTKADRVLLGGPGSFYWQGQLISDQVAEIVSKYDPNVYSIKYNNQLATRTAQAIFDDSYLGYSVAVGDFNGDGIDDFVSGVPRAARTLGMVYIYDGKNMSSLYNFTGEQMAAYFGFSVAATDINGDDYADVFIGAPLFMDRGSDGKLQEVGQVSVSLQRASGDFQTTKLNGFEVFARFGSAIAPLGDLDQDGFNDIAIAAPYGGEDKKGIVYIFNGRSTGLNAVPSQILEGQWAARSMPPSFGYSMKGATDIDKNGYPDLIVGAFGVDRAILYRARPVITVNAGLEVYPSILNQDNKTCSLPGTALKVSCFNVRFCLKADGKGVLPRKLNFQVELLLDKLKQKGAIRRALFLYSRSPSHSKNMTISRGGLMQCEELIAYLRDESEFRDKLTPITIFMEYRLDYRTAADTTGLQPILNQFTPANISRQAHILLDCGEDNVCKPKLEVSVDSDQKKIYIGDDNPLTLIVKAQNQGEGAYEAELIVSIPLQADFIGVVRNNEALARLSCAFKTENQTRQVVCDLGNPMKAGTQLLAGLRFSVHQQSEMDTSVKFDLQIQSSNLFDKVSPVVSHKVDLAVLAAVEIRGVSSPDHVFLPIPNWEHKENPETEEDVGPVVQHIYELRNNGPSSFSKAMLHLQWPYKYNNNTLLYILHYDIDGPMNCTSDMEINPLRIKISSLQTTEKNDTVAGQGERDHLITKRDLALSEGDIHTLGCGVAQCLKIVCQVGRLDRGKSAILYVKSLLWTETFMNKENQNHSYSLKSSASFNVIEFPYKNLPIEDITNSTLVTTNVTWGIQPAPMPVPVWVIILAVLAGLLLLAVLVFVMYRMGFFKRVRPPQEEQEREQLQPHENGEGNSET
Chain of purified αvβ3 integrin (P05106 27-788, form in doubt, chain 2 of 2, further chain): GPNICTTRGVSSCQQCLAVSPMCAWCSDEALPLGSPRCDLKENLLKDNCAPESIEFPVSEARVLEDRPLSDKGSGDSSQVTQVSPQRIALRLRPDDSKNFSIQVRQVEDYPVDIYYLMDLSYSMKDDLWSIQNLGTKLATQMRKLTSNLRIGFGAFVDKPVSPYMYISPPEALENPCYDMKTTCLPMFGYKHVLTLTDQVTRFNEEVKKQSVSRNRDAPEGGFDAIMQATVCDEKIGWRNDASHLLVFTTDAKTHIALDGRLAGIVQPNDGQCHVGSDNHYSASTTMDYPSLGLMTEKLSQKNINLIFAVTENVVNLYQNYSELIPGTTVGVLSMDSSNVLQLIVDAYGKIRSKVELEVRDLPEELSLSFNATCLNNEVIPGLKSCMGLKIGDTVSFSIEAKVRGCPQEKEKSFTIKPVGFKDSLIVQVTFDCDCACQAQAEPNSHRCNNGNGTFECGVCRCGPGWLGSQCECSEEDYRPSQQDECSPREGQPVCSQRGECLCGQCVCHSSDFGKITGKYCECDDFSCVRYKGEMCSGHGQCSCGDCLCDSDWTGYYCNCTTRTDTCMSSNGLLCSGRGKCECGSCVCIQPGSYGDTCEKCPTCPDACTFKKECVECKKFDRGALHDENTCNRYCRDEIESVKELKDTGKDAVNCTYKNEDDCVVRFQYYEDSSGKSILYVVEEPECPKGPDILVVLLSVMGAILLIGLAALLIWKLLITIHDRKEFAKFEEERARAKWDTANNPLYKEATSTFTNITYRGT

Substance “mutADAM 23 disintegrin-like domain (E466A) expressed as a fusion protein with GST (from UniProt O75077 498-588)” yielded a cell adhesion promoting effect, SH-Sy5y neuroblastoma cells of 40%.
